Laboratory results as given in PMC10901376 (Science Advances, 2024).

Biological target: the molecule itself
Assay: cryo-EM structure

B1: S. aureus TarL H300N (enzyme, UniProt Q2G1B8 1-562, looked up)
chain: MVKSKIYIDKIYWERVQLFVEGHSENLDLEDSNFVLRNLTETRTMKANDVKIDGNQFVCRFNVAILDNGYYLPEDKYLLVNEQELDYIAQLNPDVINDAYQNLKPEQEEEYNELETQNGKINFLLQTYLKEFRKGGISKKTVYTVTPEISSDVNEFVLDVVVTTPEVKSIYIVRKYKELRKYFRKQSFNTRQFIFKAIFNTTKFFHLKKGNTVLFTSDSRPTMSGNFEYIYNEMLRQNLDKKYDIHTVFKANITDRRGIIDKFRLPYLLGKADYIFVDDFHPLIYTVRFRRSQEVIQVWNAVGAFKTVGFSRTGKKGGPFIDSLNHRSYTKAYVSSETDIPFYAEAFGIKEKNVVPTGVPRTDVLFDEAYATQIKQEMEDELPIIKGKKVILFAPTFRGSGHGTAHYPFFKIDFERLARYCEKNNAVVLFKMHPFVKNRLNIADKHKQYFVDVSDFREVNDILFITDLLISDYSSLIYEYAVFKKPMIFYAFDLEDYITTRDFYEPYESFVPGKIVQSFDALMDALDNEDYEGEKVIPFLDKHFKYQDGRSSERLVRNLFGS
stoichiometry N: 4
